Results taken from US20250340602A1.

Molecular target: Gal80p (Saccharomyces cerevisiae) (UniProt P04387)
Assay: cell-based or functional assay

Chain of UniProt P04387 (P04387 whole entry): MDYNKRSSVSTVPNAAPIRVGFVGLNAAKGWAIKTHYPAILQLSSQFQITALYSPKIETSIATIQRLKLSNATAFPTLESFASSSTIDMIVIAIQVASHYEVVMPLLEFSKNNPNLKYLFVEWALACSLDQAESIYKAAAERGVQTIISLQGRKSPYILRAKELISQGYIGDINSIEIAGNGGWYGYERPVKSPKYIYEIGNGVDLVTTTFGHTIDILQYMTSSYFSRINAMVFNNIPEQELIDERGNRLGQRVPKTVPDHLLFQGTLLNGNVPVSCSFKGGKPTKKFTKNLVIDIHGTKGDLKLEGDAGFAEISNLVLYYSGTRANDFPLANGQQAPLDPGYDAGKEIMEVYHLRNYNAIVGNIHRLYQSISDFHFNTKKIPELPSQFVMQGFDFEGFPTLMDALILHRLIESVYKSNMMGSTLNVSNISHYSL

GAL1p-EGFP fluorescence during growth on galactose in strain SFS6: > 5 fold
Substance: Gal3p^MC (metabolic coordinator) (from UniProt P13045 1-520)
